# Test results reported in the supplement of paper PMC12667976.
# ± gives the standard error.
# B1: library; numbered along this chain (parent)
# chain: MATDAALRRLLRLHRTEIAVAVDSAFPLLHALADHDVVPEDKFQETLHLKEKEGCPQAFHALLSWLLTQDSTAILDFWRVLFKDYNLERYGRLQPILDSFPKDVDLSQPRKGRKPPAVPKALVPPPRLPTKRKASEEARAAAPAALTPRGTASPGSQLKAKPPKKPESSAEQQRLPLGNGIQTMSASVQRAVAMSSGDVPGARGAVEGILIQQVFESGGSKKCIQVGGEFYTPSKFEDSGSGKNKARSSSGPKPLVRAKGAQGAAPGGGEARLGQQGSVPAPLALPSDPQLHQKNEDECAVCRDGGELICCDGCPRAFHLACLSPPLREIPSGTWRCSSCLQATVQEVQPRAEEPRPQEPPVETPLPPGLRSAGEEVRGPPGEPLAGMDTTLVYKHLPAPPSAAPLPGLDSSALHPLLCVGPEGQQNLAPGARCGVCGDGTDVLRCTHCAAAFHWRCHFPAGTSRPGTGLRCRSCSGDVTPAPVEGVLAPSPARLAPGPAKDDTASHEPALHRDDLESLLSEHTFDGILQWAIQSMARPAAPFPS
# Variants of: B1
# Assay: AIRE transcriptional activation functional score (insulin promoter-GFP; nonsense median 0, synonymous median 1) (normalised score); higher = higher AIRE activity (more reporter activation)
# Settings: with insulin promoter-GFP reporter in HEK293
# Description: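 Deep mutational scan of full-length human AIRE (codon-optimized cDNA, DT-POPCode NNN libraries over three regions) integrated at a Bxb1 landing pad in HEK293 cells carrying an insulin core promoter-GFP reporter at a Flp-In site. Cells were sorted for the top 10% GFP about 14 days after transfection. Variant frequency log-ratios (select vs non-select, TileSeq) were rescaled so that the nonsense median is 0 and the synonymous median is 1, then averaged over biological replicates.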
row,Variant,AIRE transcriptional activation functional score
1,G431F,1.14 ± 0.1
2,S324W,1.45 ± 0.04
3,R79P,-0.266 ± 0.58
4,V37W,-0.538 ± 0.062
5,V37M,-1.53 ± 0.17
6,T151W,1.97 ± 0.091
7,L11G,-0.259 ± 0.73
8,G408K,1.14 ± 0.025
9,Q172W,1.71 ± 0.064
10,D312N,0.702 ± 0.15
11,D312Q,1.17 ± 0.16
12,D312M,0.226 ± 0.14
13,R8H,-0.286 ± 0.2
14,R8K,0.485 ± 0.11
15,R8G,-0.0812 ± 0.54
16,S64M,-0.0813 ± 0.17
17,P129T,1.17 ± 0.79
18,E136I,0.792 ± 0.39
19,K253L,0.694 ± 0.29
20,T504K,0.99 ± 0.18
21,L341F,1.01 ± 0.089

row,Variant,AIRE transcriptional activation functional score
1,P483N,0.937 ± 0.11
2,F230D,0.723 ± 0.12
3,F230A,0.596 ± 0.17
4,M536F,1.95 ± 0.17
5,M536R,-0.0464 ± 0.14
6,P460T,0.871 ± 0.4
7,L511S,0.682 ± 0.32
8,G219I,1.35 ± 0.14
9,G421P,1.4 ± 0.13
10,L323W,1.42 ± 0.12
11,L323H,0.721 ± 0.073
12,E216K,1.2 ± 0.18
13,E485P,1.25 ± 0.21
14,S248Y,1.07 ± 0.27
15,S71C,0.858 ± 0.3
16,S71D,1.61 ± 0.27
17,P95R,0.995 ± 0.8
18,D442Q,1.03 ± 0.076
19,P492L,1.02 ± 0.38
20,A191N,0.144 ± 0.39
21,A399L,-0.706 ± 0.96

row,Variant,AIRE transcriptional activation functional score
1,T147Q,0.724 ± 0.48
2,P39S,0.402 ± 1.2
3,S411D,0.711 ± 0.24
4,H292G,1.12 ± 0.18
5,P254R,0.606 ± 0.37
6,K161A,0.612 ± 0.43
7,K161F,1.69 ± 0.18
8,K161I,1.27 ± 0.34
9,L66Y,0.687 ± 0.4
10,R538K,1.18 ± 0.1
11,P233H,1.29 ± 0.15
12,V279M,1.34 ± 0.095
13,V279C,1.36 ± 0.22
14,V279Q,-0.249 ± 0.29
15,V279A,1.45 ± 0.19
16,G435P,1.14 ± 0.28
17,D288H,0.855 ± 0.19
18,D288C,1.26 ± 0.1
19,D288I,1.38 ± 0.21
20,E88C,0.444 ± 0.18
21,Q212V,-0.424 ± 0.34

row,Variant,AIRE transcriptional activation functional score
1,Q212E,0.507 ± 0.2
2,Q212P,0.358 ± 0.29
3,Q426R,0.722 ± 0.33
4,L417K,0.833 ± 0.06
5,S217C,1.16 ± 0.35
6,A300S,0.968 ± 0.23
7,R433N,1.15 ± 0.071
8,L397H,0.0686 ± 0.092
9,F59I,0.997 ± 0.48
10,F59V,0.903 ± 0.24
11,Y231I,0.701 ± 0.1
12,R174G,0.531 ± 0.32
13,Q425C,0.714 ± 0.05
14,Q425K,0.902 ± 0.12
15,Q425A,0.368 ± 0.13
16,A493K,0.774 ± 0.22
17,D515N,0.626 ± 0.15
18,L366H,1.21 ± 0.13
19,E375S,0.907 ± 0.36
20,R316N,0.525 ± 0.27
21,E353K,1.17 ± 0.078
